In patent US12121566B2, “Methods for treating gout” (Horizon Therapeutics USA, Inc., priority 2019, dated 2024):

Experiments:
[1] = test system: anti-pegloticase antibodies, anti-PEG antibodies; assay: Immunogenicity in clinical trials: antibody incidence and its relation to response and infusion reactions; type: in vivo, human
Method: A relationship between the loss of urate-lowering efficacy, incidence of IRs, and high-titer antibody formation was identified in a post-hoc analysis of the pooled data from the Phase 3 studies. […] In one study, 69 (41%) of 169 patients receiving pegloticase developed high titer anti-pegloticase antibodies and subsequently lost response to the drug. In a second study, only 1 of 52 participants with high antibody titers maintained a response to pegloticase (serum urate <6 mg/dL). In addition, 60% participants with high titers developed IR. Anti-pegloticase antibodies were largely directed to the polyethylene glycol (PEG) portion of the molecule and altered the pharmacokinetic clearance of pegloticase, resulting in inhibition of SUA lowering activity. […] In addition, 31 of 52 (60%) patients with titers exceeding 1:2430 developed IRs. […] By preventing the formation of anti-pegloticase antibodies, a tolerizing dose regimen should prevent loss of response to the drug and decrease the incidence of IRs associated with it.
Anti-pegloticase antibodies developed in 92% of patients treated with KXX every 2 weeks, and 28% for placebo. Anti-PEG antibodies were also detected in 42% of patients treated with KXX. High anti-pegloticase antibody titer was associated with a failure to maintain pegloticase-induced normalization of uric acid. The impact of anti-PEG antibodies on patients' responses to other PEG-containing therapeutics is unknown.
There was a higher incidence of infusion reactions in patients with high anti-pegloticase antibody titer: 53% (16 of 30) in the KXX every 2 weeks group compared to 6% in patients who had undetectable or low antibody titers.

rats = assay: Reproductive toxicity and fertility in rats; type: in vivo, rat
Source text: The genotoxic potential of pegloticase has not been evaluated.

rabbits = assay: Reproductive toxicity in rabbits; type: in vivo, rabbit
[2] = test system: patients with chronic gout refractory to conventional therapy; assay: Open-label extension study; type: in vivo, human; settings: KXX 8 mg every 2 weeks
Method: Two cases of congestive heart failure exacerbation occurred during the trials in patients receiving treatment with KXX 8 mg every 2 weeks. No cases were reported in placebo-treated patients. Four subjects had exacerbations of pre-existing congestive heart failure while receiving KXX 8 mg every 2 weeks during the open-label extension study.
Studies were stratified for the presence of tophi. Seventy-one percent (71%) of patients had baseline tophi. All patients were prophylaxed with an oral antihistamine, intravenous corticosteroid and acetaminophen. Patients also received prophylaxis for gout flares with non-steroidal anti-inflammatory drugs (NSAIDs) or colchicine, or both, beginning at least one week before KXX treatment unless medically contraindicated or not tolerated. Patients who completed the randomized clinical trials were eligible to enroll in a 2-year open label extension study.

## pegloticase
[1]; KXX every 2 weeks
  patients who developed anti-pegloticase antibodies: 92%
[1]; KXX every 2 weeks group, 16 of 30
  incidence of infusion reactions in patients with high anti-pegloticase antibody titer: 53%
[1]; human, in vivo
  incidence of infusion reactions in patients with undetectable or low antibody titers: 6%
[1]; patients treated with KXX
  patients with anti-PEG antibodies detected: 42%
rats; approximately 10 times the MRHD, maternal doses up to 10 mg/kg twice weekly
  mean fetal body weights: No effects
rats; approximately 50 times the MRHD, maternal doses up to 40 mg/kg every other day
  mean fetal and pup body weights: Statistically significant decreases
rats; approximately 50 times the MRHD, maternal doses up to 40 mg/kg twice weekly
  teratogenicity: not teratogenic
rats; doses up to 40 mg/kg every other day (approximately 50 times the MRHD)
  impairment on fertility: no evidence of impairment
rabbits; approximately 25 times the MRHD, maternal doses up to 10 mg/kg twice weekly
  mean fetal body weights: No effects
rabbits; approximately 75 times the MRHD, maternal doses up to 30 mg/kg every other day
  mean fetal and pup body weights: Statistically significant decreases
rabbits; approximately 75 times the MRHD, maternal doses up to 30 mg/kg twice weekly
  teratogenicity: not teratogenic
[2]
  subjects with exacerbations of pre-existing congestive heart failure: Four
